The record followed here is PMC7537338 (2020).

The target of assay [1] is T1, mouse CD47-IgV-Domain-hIg fusion protein (mouse, UniProt Q61735 19-140).
T1 chain: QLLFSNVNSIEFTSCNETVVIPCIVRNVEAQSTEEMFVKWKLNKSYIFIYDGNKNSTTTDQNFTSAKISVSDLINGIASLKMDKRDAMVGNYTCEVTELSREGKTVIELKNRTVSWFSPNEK
The assay is described as follows: FACS; competition with mouse SIRPα on CHO cells. In general terms: Flow cytometry measures light scatter and fluorescence of single cells or particles in a stream.

The target of assay [2] is human CD47-IgV-Domain-hIg fusion protein (human, UniProt Q08722 19-141). As to the kind of experiment: FACS; competition with human SIRPα on CHO cells.

Where no end group is shown, it is not given here.

Chain of human CD47-IgV-Domain-hIg fusion protein (Q08722 19-141): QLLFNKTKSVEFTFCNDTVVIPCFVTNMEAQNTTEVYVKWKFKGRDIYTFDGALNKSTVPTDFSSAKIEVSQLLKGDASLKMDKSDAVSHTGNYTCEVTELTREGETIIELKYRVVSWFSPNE

B1: pep-20-D12 (peptide)
chain: AWSATWSNYWRH
modifications: also: three D-amino acid residues substituted at N- and C-terminal, places not given here
As to B1, the half-maximal inhibitory concentration (IC50) (commonly the concentration that inhibits the measured activity by half) in assay [1] worked out at 18.2 µM; in assay [2], 12.1 µM.
